Changes are numbered by the printed parent chain.
B1: TfR15 (mouse hybridoma antibody) (antibody, V domains shown)
VH: QVQLQQPGSELVRPGASVKLSCKASGYTFTSYWMHWVKQRPGQGLEWIGNIYPGSGSSNYDEKFKSKATLTVDTSSSTAYMQLNSLTSEDSAVYYCTRSSYYGNFDTMDNWGQGTSVTVSS
VL: QIVLTQSPAIMSASPGEKVTMTCSASSSIRYMNWYQQKPVTSPKRWIYDTSTLASGVPARFSGSGSGTSYSLTISSMEAEDAATYYCHQRSSYPWTFGGGTKLEIK
notes: mouse IgG in hybridoma supernatant
B2: TfR22 (mouse hybridoma antibody) (antibody, V domains shown)
VH: DVQLQESGPGLVKPSQSLSLTCTVTGYSITSDYAWNWIRQFPGNKLEWMGYISYSGSTRYNPSLKSRISITRDTSKNQFFLQLNSVTTEDTATYYCTSWGYRYLEDYWGQGTSVTVSA
VL: B1 VL with K18R, R30S, Y31S, N33H, V40G, R45K, T52K
notes: as for B1
B3: TfR17 (mouse hybridoma antibody) (antibody, V domains shown)
VH: B2 VH with R59S, T97A, A118S
VL: B1 VL with R30S, Y31S, N33H, V40G, Y48S, T52K, V57I, E78A, T84A
notes: as for B1
B4: TfR27 (mouse hybridoma antibody) (antibody, V domains shown)
VH: B1 VH with S55T, S58T, N84S, N110Y
VL: B1 VL with V3F, K18R, V40G, T52E, S62T, S92G
notes: as for B1
B5: TfR28 (mouse hybridoma antibody) (antibody, V domains shown)
VH: B2 VH with R59S, K65R, T97A, S98I, W99R, L104E, S113T, V114L, A118S
VL: B1 VL with G16R, R30S, Y31S, N33H, V40G, T52K
notes: as for B1
B6: TfR23 (mouse hybridoma antibody) (antibody, V domains shown)
VH: B2 VH with R59S, A118S
VL: B1 VL with K18R, R30S, Y31S, M32L, N33H, V40G, R45K, T52K, T73A
notes: as for B1
B7: TfR31 (mouse hybridoma antibody) (antibody, V domains shown)
VH: B2 VH with S57R, R59S, I70F, T97A, S98G, A118S
VL: B1 VL with R30S, Y31S, N33H, Q37L, V40G, R45K, T52K
notes: as for B1
B8: TfR10 (mouse hybridoma antibody) (antibody, V domains shown)
VH: QVQLQQSGPELVKPGASVKMSCKASGYTFTSYYIHWVKQRPGQGLEWIGWIYPGDGNTNYNEKFKGKTTLTADKSSSTAYMLLSSLTSEDSAIYFCARDGSIPFAYWGQGTLVTVSA
VL: DIVMTQSPSSLTVTAGEKVTMSCKSSQSLLNSGNQKNYLTWYQQKPGQPPKLLIYWASTRESGVPDRFTGSGSGTDFTLTISSVQAEDLAVYYCQNDYSYPLTFGAGTKLELK
notes: as for B1
B9: TfR25 (mouse hybridoma antibody) (antibody, V domains shown)
VH: QVQLQQSGPELVKPGTSVKMSCKASGYTFTNYYIHWMKQRPGQGLEWIGWIYPGDGNTHYNERFKGKTTLTADKSSSTVYMFLTSLTSEDSAIYFCAKDKDMPGMDYWGQGTSVTVSS
VL: B8 VL with I2M, L30F, G33E, Y55S, S82N
notes: as for B1
B10: TfR26 (mouse hybridoma antibody) (antibody, V domains shown)
VH: B9 VH with Q5H, T16A, M37V, N57V, R63K, V79A, F82L, T84S, K98R, M102V
VL: B8 VL with A15S, G33E, T75P
notes: as for B1
B11: TfR24 (mouse hybridoma antibody) (antibody, V domains shown)
VH: B8 VH with A16T, G56D, N59H, K63N, G100Y, S101Y, I102G, P103R
VL: B8 VL with K18R, Y42F, L79V, S99G
notes: as for B1
B12: TfR13 (mouse hybridoma antibody) (antibody, V domains shown)
VH: DVKLVESGGGLVKPGGSLKLSCAASGFTFSSYTMSWVRQTPEKRLEWVATISSGGSYTYFPDSVKGRFTISRDNAKNTLYLQMSSLKSEDTAIYYCTRAHYYAYDYWGQGTTLTVSS
VL: DILLTQSPAILSVSPGERVSFSCRASQSIGTSIHWYQQRTNGSPRLLIKYASGSISGIPSRFSGSGSGTDFTLSINSVESEDIADYYCQQSNSWPTSTFGAGTKLELK
notes: as for B1
B13: TfR11 (mouse hybridoma antibody) (antibody, V domains shown)
VH: EVQLQQSGTVLARPGASVKMSCKASGYSFTSYWMHWVKQRPGQGLEWIGAIFPGNIDTIYNQKFKDKAKLTAVTSASTAYMELSSLTNEDSAVYFCTRLYYDYVWGAGTTVTVSS
VL: DIKMTQSPSSMYASLGERVTLTCKASQDINSYLSWFQQKPGKSPKTLIYHVNRLVDGVPSRFSGSGSGQDYSLTISSLEYEDMGIYYCLQYDEFPYTFGGGTKLEIK
notes: as for B1
B14: TfR16 (mouse hybridoma antibody) (antibody, V domains shown)
VH: EVQLQQSGTVLARPGASVKMSCKTSGYSFSSYWMHWVKQRPGQGLEWIGTIYPGNSDTIYNQNFKGKAKLTAVTSASTAYMELSSLTNEDSAVYYCSTIYYFSNWGQGTTLTVSS
VL: B13 VL with S10P, Y12F, L21I, H50R, V51A, V55L, E79D, M83V, E93V
notes: as for B1

Target: T1, Full length Mouse TfR on CHO cells (mouse, UniProt Q62351 1-763)
T1 construct: also called CHO + muTfR
Assay: FACS, CHO+muTfR
Protocol: (§1) A total of 1536 anti-TfR hybridoma supernatants were initially screened for their ability to differentially bind CHO cells overexpressing human or mouse TfR cells compared to CHO parental cells by FACS. Overexpressing cells were harvested, washed and labeled with Pacific Blue, FITC and Pacific Orange dyes (ThermoFisher) to create uniquely barcoded cell populations. Barcoded cells (5×10⁴ of each cell population) were aliquoted into 96-well U-bottom plates and incubated with 50 μl of hybridoma cell culture supernatant or […] of commercially available purified mouse anti-human TfR monoclonal antibody (Sigma Aldrich, Cat #SAB4700515) and rat anti-mouse TfR antibody (Invitrogen, Waltham, MA, Cat #R17217) on ice for 30 minutes. After this primary incubation, the supernatants were removed via centrifugation, the cells were washed twice with 175 μl of ice-cold FACS buffer (PBS+1% FBS+2 mM EDTA), and the cells were then further incubated on ice for 20 minutes with anti-mouse IgG Fc-allophycocyanin (APC) or anti-rat IgG Fc-APC (Jackson Labs, Cat #115-136-071 and Cat #112-136-071, respectively) (diluted 1:1000). Following this secondary antibody incubation, the cells were again washed twice with ice-cold FACS buffer and resuspended in a final volume of 50 μl of FACS buffer. Binding intensity on cells was analyzed using the FACS Canto system (BD Biosciences), and the ratio of APC Mean Fluorescence Intensity (MFI) on each barcoded cell population was determined for each anti-TfR hybridoma supernatant tested.

T1 sequence (Q62351 whole entry): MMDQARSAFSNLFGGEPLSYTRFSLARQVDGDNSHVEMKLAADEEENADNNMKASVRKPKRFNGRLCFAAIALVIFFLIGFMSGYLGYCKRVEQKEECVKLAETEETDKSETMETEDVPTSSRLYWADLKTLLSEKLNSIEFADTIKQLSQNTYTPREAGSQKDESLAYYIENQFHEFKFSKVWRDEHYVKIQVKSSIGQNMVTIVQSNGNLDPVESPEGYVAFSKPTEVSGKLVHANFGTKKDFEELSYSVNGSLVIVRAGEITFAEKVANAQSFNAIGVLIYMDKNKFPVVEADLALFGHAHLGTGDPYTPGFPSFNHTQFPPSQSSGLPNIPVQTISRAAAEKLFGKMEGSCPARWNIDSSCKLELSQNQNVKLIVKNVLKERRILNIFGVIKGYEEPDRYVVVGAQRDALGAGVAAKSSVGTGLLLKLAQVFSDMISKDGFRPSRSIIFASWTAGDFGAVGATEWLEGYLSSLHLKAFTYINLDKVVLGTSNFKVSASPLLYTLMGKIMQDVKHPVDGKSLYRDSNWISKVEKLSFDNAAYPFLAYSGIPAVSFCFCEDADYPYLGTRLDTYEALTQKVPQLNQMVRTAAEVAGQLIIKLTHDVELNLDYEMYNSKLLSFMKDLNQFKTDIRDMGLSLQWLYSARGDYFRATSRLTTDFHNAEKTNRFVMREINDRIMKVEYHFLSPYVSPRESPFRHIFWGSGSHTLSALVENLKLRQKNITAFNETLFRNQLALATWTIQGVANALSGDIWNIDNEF

Row | Binder | binding result
1 | B1 | no binding
2 | B2 | no binding
3 | B3 | no binding
4 | B4 | no binding
5 | B5 | no binding
6 | B6 | no binding
7 | B7 | no binding
8 | B8 | no binding
9 | B9 | no binding
10 | B10 | no binding
11 | B11 | no binding
12 | B12 | no binding
13 | B13 | no binding
14 | B14 | no binding

Target: T1, Full length Mouse TfR on CHO cells
Assay: FACS MFI, supernatant
Protocol: as §1

Row | Binder | fold over parental (CHO WT) [fold]
15 | B1 | 1
16 | B2 | 1
17 | B3 | 1
18 | B4 | 1
19 | B5 | 1
20 | B6 | 1
21 | B7 | 1
22 | B8 | 1
23 | B9 | 1
24 | B10 | 1
25 | B11 | 1
26 | B12 | 1
27 | B13 | 1
28 | B14 | 1

Target: T2, Full length human TfR on CHO cells (human, UniProt P02786 1-760)
T2 construct: also called CHO + huTfR; CHO + hTfR
Assay: FACS MFI, supernatant
Protocol: as §1

T2 sequence (P02786 whole entry): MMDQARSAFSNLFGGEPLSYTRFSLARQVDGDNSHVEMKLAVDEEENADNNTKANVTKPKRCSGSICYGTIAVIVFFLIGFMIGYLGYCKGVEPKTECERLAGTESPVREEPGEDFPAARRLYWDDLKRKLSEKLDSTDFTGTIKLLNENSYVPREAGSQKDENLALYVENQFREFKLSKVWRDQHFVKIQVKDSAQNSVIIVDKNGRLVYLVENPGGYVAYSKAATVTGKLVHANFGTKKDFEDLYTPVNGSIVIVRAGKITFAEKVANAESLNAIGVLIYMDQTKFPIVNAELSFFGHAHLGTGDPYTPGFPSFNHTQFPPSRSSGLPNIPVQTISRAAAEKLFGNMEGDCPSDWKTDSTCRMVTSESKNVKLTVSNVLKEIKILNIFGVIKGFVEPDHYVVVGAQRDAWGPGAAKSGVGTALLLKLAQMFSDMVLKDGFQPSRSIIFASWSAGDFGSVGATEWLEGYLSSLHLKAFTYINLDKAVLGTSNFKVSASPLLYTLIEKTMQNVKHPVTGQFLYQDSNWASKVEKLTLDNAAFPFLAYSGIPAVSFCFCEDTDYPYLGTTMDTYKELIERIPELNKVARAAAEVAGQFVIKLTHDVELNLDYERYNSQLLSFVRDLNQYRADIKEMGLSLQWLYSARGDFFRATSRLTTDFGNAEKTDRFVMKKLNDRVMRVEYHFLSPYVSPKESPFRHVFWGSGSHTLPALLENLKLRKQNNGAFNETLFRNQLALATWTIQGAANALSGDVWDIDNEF

Row | Binder | fold over parental (CHO WT) [fold]
29 | B1 | 119
30 | B2 | 290
31 | B3 | 73
32 | B4 | 279
33 | B5 | 157
34 | B6 | 279
35 | B7 | 90
36 | B8 | 389
37 | B9 | 135
38 | B10 | 285
39 | B11 | 370
40 | B12 | 392
41 | B13 | 290
42 | B14 | 534

Target: T3, huTfR Apical Domain-Avi-His (human, biotin on the Avi tag (BirA) where captured on streptavidin)
T3 construct: also called huTfR apical Avi-His; hTfR Apical
T3 chain: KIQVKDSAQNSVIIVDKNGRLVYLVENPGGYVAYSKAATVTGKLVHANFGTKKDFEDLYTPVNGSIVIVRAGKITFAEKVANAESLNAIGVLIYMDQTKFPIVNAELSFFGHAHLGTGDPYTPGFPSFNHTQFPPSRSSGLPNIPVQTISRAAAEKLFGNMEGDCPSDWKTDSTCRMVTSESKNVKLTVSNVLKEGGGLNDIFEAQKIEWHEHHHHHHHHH
Assay: ELISA OD450, supernatant
Protocol: Hybridoma culture supernatants from 319 hybridomas obtained as described above were screened for their ability to bind Avi-His-tagged huTfR ECD, huTfR apical domain, and muTfR ECD (as described in Example 1) as compared to binding to an irrelevant Avi-His-tagged control protein. Briefly, 96-well polystyrene plates were coated with 5 μg/ml of streptavidin (Thermo Fisher, Cat #PI21125) in coating buffer (0.05M carbonate buffer, pH 9.6, Sigma, Cat #C3041) overnight at 4° C. Coated plates were then blocked with ELISA diluent (PBS+0.5% BSA+0.05% Tween20) for one hour. Blocking buffer was removed and Avi-His-tagged human TfR, human TfR apical domain, mouse TfR and an irrelevant Avi-His-tagged protein were added at 1 μg/ml in ELISA diluent and captured for 1 hour at room temperature. After washing three times with 300 μl of PBST (PBS+0.05% Tween20, Thermo 28352), the hybridoma cell culture supernatants were added (50 μl/well) to each well. After 30 minutes of incubation at room temperature, the plates were washed three times with 300 μl of PBST. Anti-mouse IgG Fc-HRP or anti-rat IgG Fc-HRP (Jackson Immunoresearch, Cat #115-035-071 and 112-036-071, respectively) secondary antibodies were diluted 1:5000 in ELISA diluent, added to each well at 50 μl/well, and incubated for 30 minutes at room temperature with shaking. After a final set of washes (3×300 μl in PBST), 50 μl/well of BioFx TMB substrate (Surmodics, Cat #TMBW-1000-01) was added to the wells. The reaction was then quenched after 5-10 mins with 50 μl/well of 2N sulfuric acid. The plates were read for absorbance at 450 nm on a SpectraMax M5 (Molecular Devices, Sunnyvale, CA) using SoftMax Pro software.

Row | Binder | ratio over irrelevant protein [fold]
43 | B1 | 34
44 | B2 | 33
45 | B3 | 26
46 | B4 | 34
47 | B5 | 30
48 | B6 | 31
49 | B7 | 20
50 | B8 | 35
51 | B9 | 33
52 | B10 | 35
53 | B11 | 31
54 | B12 | 22
55 | B13 | 39
56 | B14 | 18

Source: patent US20250270339A1 (Alector, published 2025)
